Laboratory results as given in patent publication US20140359899A1.

Test system: T1, OC[C@H]1O[C@@](CO)(O[C@H]2O[C@H](CO)[C@@H](O)[C@H](O)[C@H]2O)[C@@H](O)[C@@H]1O
T1 construct: Primers for the full length ORF of AtSWEET11 (AtSWT11FattB1 and AtSWT11attB2) or AtSWEET12; expressed in transfected cells; host or cells: Xenopus oocytes injected with capped cRNA from pOO2-GW
Experiment: Oocyte uptake assay: [14C]-sucrose uptake in Xenopus oocytes expressing AtSWEET12
Type: cell-based, Arabidopsis
Details: other: Xenopus oocytes; FIG. 1F

AtSWEET12 (Arabidopsis thaliana), sequence (chain, as listed by the source): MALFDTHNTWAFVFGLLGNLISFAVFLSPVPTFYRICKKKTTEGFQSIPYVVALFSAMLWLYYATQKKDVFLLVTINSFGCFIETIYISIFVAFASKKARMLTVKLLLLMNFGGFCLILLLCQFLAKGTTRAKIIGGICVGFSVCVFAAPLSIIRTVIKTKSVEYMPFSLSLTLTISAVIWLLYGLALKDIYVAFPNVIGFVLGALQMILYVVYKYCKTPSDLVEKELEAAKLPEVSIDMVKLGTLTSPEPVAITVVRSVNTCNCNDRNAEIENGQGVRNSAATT

Substance: AtSWEET12 (Arabidopsis thaliana)
- Km: 70 mM
